Results taken from PMC11940188.

Assays:
[1] = target: Rho13 (Rhodonellum psychrophilum); test: SAXS; nominal 1 mg/mL enzyme (Ika2 1.00, Rho13 0.94, I3C6 0.87 mg/mL by Abs280), 25 °C, 1800 s; indirect Fourier transformation and fits to AlphaFold models; self-association
[2] = target: Rho13 (Rhodonellum psychrophilum); test: SAXS; nominal 0.5 mg/mL enzyme (Ika2 0.51, Rho13 0.46, I3C6 0.46 mg/mL by Abs280), 25 °C, 1800 s; indirect Fourier transformation and fits to AlphaFold models; self-association
[3] = target: Rho13 (Rhodonellum psychrophilum); test: SEC; Superdex-200 Increase, 0.5 mL/min, Ni-NTA eluates after PD-10 desalting; 100 mM HEPES, 150 mM NaCl, 2 mM CaCl2 pH 6.5 or 50 mM MOPS, 50 mM NaCl, 2 mM CaCl2 pH 7.5; calibrated with lysozyme, carbonic anhydrase and BSA; self-association, monomer and dimer

dimer concentration in the SAXS model fit [1]: 0.69 mg/mL
monomer concentration in the SAXS model fit [1]: 0.03 mg/mL
n-mers (SAXS model fit) [1]: 1.96
n-mers (indirect Fourier transformation) [1]: 1.58
dimer concentration in the SAXS model fit [2]: 0.29 mg/mL
monomer concentration in the SAXS model fit [2]: 0.06 mg/mL
n-mers (SAXS model fit) [2]: 1.83
n-mers (indirect Fourier transformation) [2]: 1.38
share of the combined peak area, dimer peak [3]: 26%
stoichiometry N [3]: 2
Substance: Rho13 (enzyme)
